Experimental data reported in patent US20120244161A1 (published 2012).

Molecular target: T1, EpCAM on KatoIII cells (human, UniProt P16422 24-314)
T1 sequence (looked up): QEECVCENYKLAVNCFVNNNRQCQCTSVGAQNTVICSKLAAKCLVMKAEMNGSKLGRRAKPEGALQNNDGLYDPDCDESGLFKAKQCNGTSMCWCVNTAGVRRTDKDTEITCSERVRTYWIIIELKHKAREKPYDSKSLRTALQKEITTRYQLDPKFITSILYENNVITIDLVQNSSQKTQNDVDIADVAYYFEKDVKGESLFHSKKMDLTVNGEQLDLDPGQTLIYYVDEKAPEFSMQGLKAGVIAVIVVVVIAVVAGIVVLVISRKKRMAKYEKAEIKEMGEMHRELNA
Assay: cell-based or functional assay

EC50 of CD25 upregulation on CD4+ T lymphocytes, human PBMC with 0.2% KatoIII cells, 40 h, flow cytometry: 3.5 ng/mL
EC50 of CD25 upregulation on CD4+ T lymphocytes, human PBMC with 2% KatoIII cells, 40 h, flow cytometry: 2.35 ng/mL
EC50 of CD25 upregulation on CD4+ T lymphocytes, human PBMC with 10% KatoIII cells, 40 h, flow cytometry: 0.8 ng/mL
EC50 of CD25 upregulation on CD8+ T lymphocytes, human PBMC with 0.2% KatoIII cells, 40 h, flow cytometry: 5.98 ng/mL
EC50 of CD25 upregulation on CD8+ T lymphocytes, human PBMC with 2% KatoIII cells, 40 h, flow cytometry: 0.99 ng/mL
EC50 of CD25 upregulation on CD8+ T lymphocytes, human PBMC with 10% KatoIII cells, 40 h, flow cytometry: 0.26 ng/mL
B1: EpCAMxCD3 bispecific single chain antibody MT110 (bispecific antibody)
chain: ELVMTQSPSSLTVTAGEKVTMSCKSSQSLLNSGNQKNYLTWYQQKPGQPPKLLIYWASTRESGVPDRFTGSGSGTDFTLTISSVQAEDLAVYYCQNDYSYPLTFGAGTKLEIKGGGGSGGGGSGGGGSEVQLLEQSGAELVRPGTSVKISCKASGYAFTNYWLGWVKQRPGHGLEWIGDIFPGSGNIHYNEKFKGKATLTADKSSSTAYMQLSSLTFEDSAVYFCARLRNWDEPMDYWGQGTTVTVSSGGGGSDVQLVQSGAEVKKPGASVKVSCKASGYTFTRYTMHWVRQAPGQGLEWIGYINPSRGYTNYADSVKGRFTITTDKSTSTAYMELSSLRSEDTATYYCARYYDDHYCLDYWGQGTTVTVSSGEGTSTGSGGSGGSGGADDIVLTQSPATLSLSPGERATLSCRASQSVSYMNWYQQKPGKAPKRWIYDTSKVASGVPARFSGSGSGTDYSLTINSLEAEDAATYYCQQWSSNPLTFGGGTKVEIK
